Measurements published in IntAct's records for PubMed 22705791.

B1: Double-strand break repair protein MRE11 (Saccharomyces cerevisiae), P32829 (parent)
chain: MDYPDPDTIRILITTDNHVGYNENDPITGDDSWKTFHEVMMLAKNNNVDMVVQSGDLFHVNKPSKKSLYQVLKTLRLCCMGDKPCELELLSDPSQVFHYDEFTNVNYEDPNFNISIPVFGISGNHDDASGDSLLCPMDILHATGLINHFGKVIESDKIKVVPLLFQKGSTKLALYGLAAVRDERLFRTFKDGGVTFEVPTMREGEWFNLMCVHQNHTGHTNTAFLPEQFLPDFLDMVIWGHEHECIPNLVHNPIKNFDVLQPGSSVATSLCEAEAQPKYVFILDIKYGEAPKMTPIPLETIRTFKMKSISLQDVPHLRPHDKDATSKYLIEQVEEMIRDANEETKQKLADDGEGDMVAELPKPLIRLRVDYSAPSNTQSPIDYQVENPRRFSNRFVGRVANGNNVVQFYKKRSPVTRSKKSGINGTSISDRDVEKLFSESGGELEVQTLVNDLLNKMQLSLLPEVGLNEAVKKFVDKDEKTALKEFISHEISNEVGILSTNEEFLRTDDAEEMKALIKQVKRANSVRPTPPKENDETNFAFNGNGLDSFRSSNREVRTGSPDITQSHVDNESRITHISQAESSKPTSKPKRVRTATKKKIPAFSDSTVISDAENELGDNNDAQDDVDIDENDIIMVSTDEEDASYGLLNGRKTKTKTRPAASTKTASRRGKGRASRTPKTDILGSLLAKKRK
partner: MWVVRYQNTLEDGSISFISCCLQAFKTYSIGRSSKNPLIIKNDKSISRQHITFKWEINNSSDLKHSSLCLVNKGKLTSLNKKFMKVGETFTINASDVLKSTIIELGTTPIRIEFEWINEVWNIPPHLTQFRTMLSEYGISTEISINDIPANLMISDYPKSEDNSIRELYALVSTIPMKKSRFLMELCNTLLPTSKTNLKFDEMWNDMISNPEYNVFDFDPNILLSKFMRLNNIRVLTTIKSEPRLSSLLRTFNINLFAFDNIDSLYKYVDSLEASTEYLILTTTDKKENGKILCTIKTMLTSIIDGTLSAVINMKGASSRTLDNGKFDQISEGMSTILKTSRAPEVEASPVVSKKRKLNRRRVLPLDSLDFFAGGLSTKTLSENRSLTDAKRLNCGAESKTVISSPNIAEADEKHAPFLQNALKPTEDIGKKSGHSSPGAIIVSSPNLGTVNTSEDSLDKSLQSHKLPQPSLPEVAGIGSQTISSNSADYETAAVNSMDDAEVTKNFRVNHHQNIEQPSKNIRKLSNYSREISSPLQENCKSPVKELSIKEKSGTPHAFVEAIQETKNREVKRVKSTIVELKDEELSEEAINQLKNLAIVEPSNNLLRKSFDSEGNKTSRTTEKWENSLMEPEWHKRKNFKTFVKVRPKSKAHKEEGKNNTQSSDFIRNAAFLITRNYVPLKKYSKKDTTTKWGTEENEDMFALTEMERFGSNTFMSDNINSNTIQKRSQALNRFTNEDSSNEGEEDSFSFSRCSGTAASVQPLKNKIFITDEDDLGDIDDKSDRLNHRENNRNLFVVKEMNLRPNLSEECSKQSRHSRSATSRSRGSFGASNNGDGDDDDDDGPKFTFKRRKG

Variants of: B1
Conditions: with xrs2_yeast XRS2, P33301

Effect of a mutation on the interaction, disrupting interaction strength:
N113S
D109G
R76K
R76A
